Test results published in patent US20240377400A1, “METHODS FOR TREATING A SUBTYPE OF COLORECTAL CANCER” (Cornell University, priority 2021, published 2024).

Test system: MTO-sgPrkci/sgPrkcz tumors
Test: Subcutaneous MTO-sgPrkci/sgPrkcz tumors in syngeneic C57BL/6J mice treated with PEGPH20
Format: in vivo, mouse
Method: FIGS. 8F-8J illustrate subcutaneous injection of sgPrkci/Prkcz and sgC MTOs in WT mice. Mice were treated twice a week with Veh or PEGPH20 0.0375 mg/kg for 3 weeks (MTOs: sgC n=10, sgC PEGPH20-treated n=10, sgPrkci/Prkcz n=10, and sgPrkci/Prkcz PEGPH20-treated n=8). Experimental design (F); Immunohistochemistry (IHC) for HA, Masson's trichrome, and αSMA (G) staining quantification (H); tumor volume (I) and tumor weight (J). Scale bars, 100 μm.
For colonoscopy-guided orthotopic injection in the colon submucosa using mouse tumor organoids (MTOs), a 10 μl organoid suspension of equivalent to 40-50 MTOs admixed with 10% Matrigel (Corning) was directly injected into the colonic submucosa of 7 weeks old C57BL/6 mice. 4 weeks after implantation, tumors were collected and analyzed histologically. Orthotopic tumor sizes were measured by caliper after mice were sacrificed. For xenografts using MTOs, a 100 μl cell suspension of equivalent to 0.5×10^6 cells of sgPrkci/Prkcz or sgC MTOs admixed with 30% Matrigel (Corning) was directly injected subcutaneously into the right flank of 7 weeks old C57BL/6 mice. Tumors were allowed to grow for 14 days, and mice were randomly divided to receive vehicle, n=20, or PEGPH20 (0.0375 mg/kg, 2 days each week) via retro-orbital injection, n=18. Tumors were measured twice a week. Mice were euthanized three weeks after treatment and tumors were analyzed histologically. For the combination therapy of anti-PD-L1 (Clone B7-H1, Bioxcell) antibody and PEGPH20, mice were injected with a dose of 5 mg/kg (body mass) of anti-PD-L1 antibody in combination with PEGPH20 (n=15) twice a week for 4 weeks until they were sacrificed.
To address the potential role of HA stromal accumulation in the tumorigenesis of intestinal mesenchymal tumors in vivo, mouse tumor organoids (MTO) with mutations in Apc, Trp53, Kras, and Tgfbr2 (Tauriello et al., 2018) and with deletion of Prkci and Prkcz by CRISPR/Cas9 were characterized. MTO-sgPrkci/sgPrkcz recapitulated the observed phenotype in human organoids showing in vitro upregulation of Has1, Has2, and Has3 transcripts, increased expression of HA, and enrichment in EMT and TGFβ signaling signatures (FIGS. 8A-8E). […] Next, the impact of depleting HA on tumorigenesis was tested. To that end, MTO-sgPrkci/sgPrkcz or MTO-sgC were subcutaneously transplanted into syngeneic C57BL/6J mice and treated with a low dose of clinical-grade pegylated hyaluronidase (PEGPH20; 0.0375 mg/Kg), equivalent to a human dose evaluated in clinical trials, or with vehicle (FIG. 8F).

B1: PEGPH20: a PEGylated version of human recombinant PH20 hyaluronidase; clinical-grade pegylated hyaluronidase (Halozyme Therapeutics) (protein, UniProt P38567 36-490, looked up)
Hyaluronidase PH-20: LNFRAPPVIPNVPFLWAWNAPSEFCLGKFDEPLDMSLFSFIGSPRINATGQGVTIFYVDRLGYYPYIDSITGVTVNGGIPQKISLQDHLDKAKKDITFYMPVDNLGMAVIDWEEWRPTWARNWKPKDVYKNRSIELVQQQNVQLSLTEATEKAKQEFEKAGKDFLVETIKLGKLLRPNHLWGYYLFPDCYNHHYKKPGYNGSCFNVEIKRNDDLSWLWNESTALYPSIYLNTQQSPVAATLYVRNRVREAIRVSKIPDAKSPLPVFAYTRIVFTDQVLKFLSQDELVYTFGETVALGASGIVIWGTLSIMRSMKSCLLLDNYMETILNPYIINVTLAAKMCSQVLCQEQGVCIRKNWNSSDYLHLNPDNFAIQLEKGGKFTVRGKPTLEDLEQFSEKFYCSCYSTLSCKEKADVKDTDAVDVCIADGVCIDAFLKPPMETEEPQIFYNASPSTLS
modifications: PEGylated
signatures related to invasion, tumor progression, and desmoplasia (EMT, myogenesis, angiogenesis, TGFβ signaling, stromal activation, CMS4 subtype) (GSEA of Quant-seq, treated versus Veh): decrease | IFN and allograft rejection signatures (GSEA of RNAseq, allografts from MTO-sgPrkci/sgPrkcz): enrichment | tumor volume and weight (PEGPH20 0.0375 mg/Kg twice a week, 3 weeks): sensitive | desmoplastic phenotype: expression of HA, collagen, and αSMA+ (PEGPH20 0.0375 mg/Kg twice a week, 3 weeks, IHC): reverted
